Assays:
integrin αvβ3 on cells = integrin αvβ3 on cells (human, UniProt P06756 31-1048; P05106 27-788); experiment: cell-based or functional assay
[1] = target: integrin αvβ5 on cells (human) (UniProt P06756); experiment: cell-based or functional assay
[2] = target: binding sites on human melanoma M24met cells; experiment: binding of CN to human melanoma M24met cells, high affinity site
[3] = target: binding sites on human melanoma M24met cells; experiment: binding of CN to human melanoma M24met cells, lower affinity site
[4] = target: integrin receptors on the surface of MDA-MB-435 cells; experiment: cell-based or functional assay
[5] = target: T1, platelet membrane glycoprotein (GP)IIb/IIIa on human platelets (human, UniProt P08514 32-1039; P05106 27-788); experiment: Scatchard analysis of CN binding to unactivated human platelets
T1 construct: whole, on cells; also called fibrinogen receptor; αIIbβ3

[6] = target: T1, platelet membrane glycoprotein …
[7] = target: integrin receptors on the surface of MDA-MB-435 cells; experiment: inhibition of binding of MDA-MB-435 cells to immobilized CN (0.1 µg/well); competitor: immobilized CN

T1 sequence (P08514 32-1039, chain 1 of 2): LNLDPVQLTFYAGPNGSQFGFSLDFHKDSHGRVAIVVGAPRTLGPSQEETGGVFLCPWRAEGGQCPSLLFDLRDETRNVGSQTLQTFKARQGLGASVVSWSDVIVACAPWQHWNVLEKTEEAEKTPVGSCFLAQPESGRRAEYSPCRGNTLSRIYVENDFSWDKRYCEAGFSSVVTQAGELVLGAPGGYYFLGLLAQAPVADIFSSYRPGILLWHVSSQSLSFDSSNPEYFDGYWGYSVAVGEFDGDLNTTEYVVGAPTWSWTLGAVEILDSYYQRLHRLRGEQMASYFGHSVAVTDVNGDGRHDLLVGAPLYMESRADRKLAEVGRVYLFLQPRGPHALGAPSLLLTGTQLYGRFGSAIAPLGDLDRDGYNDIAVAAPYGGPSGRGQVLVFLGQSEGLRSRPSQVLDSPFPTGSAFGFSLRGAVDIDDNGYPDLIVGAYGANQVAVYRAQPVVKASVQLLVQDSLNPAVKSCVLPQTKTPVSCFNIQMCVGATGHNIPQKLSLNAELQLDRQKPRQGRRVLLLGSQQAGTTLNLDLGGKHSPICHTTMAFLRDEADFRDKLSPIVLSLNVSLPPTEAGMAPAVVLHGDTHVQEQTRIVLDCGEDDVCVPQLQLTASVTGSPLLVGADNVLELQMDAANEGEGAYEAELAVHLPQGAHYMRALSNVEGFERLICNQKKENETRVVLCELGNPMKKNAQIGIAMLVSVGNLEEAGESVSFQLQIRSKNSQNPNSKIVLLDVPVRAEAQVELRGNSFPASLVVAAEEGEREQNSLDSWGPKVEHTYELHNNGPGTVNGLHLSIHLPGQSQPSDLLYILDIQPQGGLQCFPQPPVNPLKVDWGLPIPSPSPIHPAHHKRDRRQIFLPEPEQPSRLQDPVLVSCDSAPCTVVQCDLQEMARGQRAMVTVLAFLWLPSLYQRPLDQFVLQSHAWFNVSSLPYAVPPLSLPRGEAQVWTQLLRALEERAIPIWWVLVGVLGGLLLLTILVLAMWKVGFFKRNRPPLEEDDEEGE
T1 sequence (P05106 27-788, chain 2 of 2): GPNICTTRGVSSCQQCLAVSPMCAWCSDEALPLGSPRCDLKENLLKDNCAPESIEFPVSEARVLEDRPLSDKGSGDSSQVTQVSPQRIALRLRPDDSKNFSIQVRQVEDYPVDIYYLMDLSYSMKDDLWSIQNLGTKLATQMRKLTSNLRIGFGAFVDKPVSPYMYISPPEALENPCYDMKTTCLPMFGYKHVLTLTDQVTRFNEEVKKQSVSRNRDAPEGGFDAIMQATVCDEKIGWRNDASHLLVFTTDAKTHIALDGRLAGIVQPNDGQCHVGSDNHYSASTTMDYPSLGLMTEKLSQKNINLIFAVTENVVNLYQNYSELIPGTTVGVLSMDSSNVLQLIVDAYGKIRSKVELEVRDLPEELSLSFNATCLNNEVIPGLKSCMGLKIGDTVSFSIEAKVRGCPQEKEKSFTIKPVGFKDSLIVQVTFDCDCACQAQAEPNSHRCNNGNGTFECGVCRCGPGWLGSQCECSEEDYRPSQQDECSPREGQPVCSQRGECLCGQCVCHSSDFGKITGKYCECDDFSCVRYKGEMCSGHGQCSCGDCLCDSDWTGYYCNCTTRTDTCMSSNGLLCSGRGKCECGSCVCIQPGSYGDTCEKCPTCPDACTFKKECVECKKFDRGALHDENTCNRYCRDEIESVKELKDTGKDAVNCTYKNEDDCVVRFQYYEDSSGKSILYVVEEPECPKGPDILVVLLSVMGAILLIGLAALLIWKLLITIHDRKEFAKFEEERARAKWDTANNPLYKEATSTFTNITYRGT
integrin αvβ3 on cells, sequence (P06756 31-1048, chain 1 of 2): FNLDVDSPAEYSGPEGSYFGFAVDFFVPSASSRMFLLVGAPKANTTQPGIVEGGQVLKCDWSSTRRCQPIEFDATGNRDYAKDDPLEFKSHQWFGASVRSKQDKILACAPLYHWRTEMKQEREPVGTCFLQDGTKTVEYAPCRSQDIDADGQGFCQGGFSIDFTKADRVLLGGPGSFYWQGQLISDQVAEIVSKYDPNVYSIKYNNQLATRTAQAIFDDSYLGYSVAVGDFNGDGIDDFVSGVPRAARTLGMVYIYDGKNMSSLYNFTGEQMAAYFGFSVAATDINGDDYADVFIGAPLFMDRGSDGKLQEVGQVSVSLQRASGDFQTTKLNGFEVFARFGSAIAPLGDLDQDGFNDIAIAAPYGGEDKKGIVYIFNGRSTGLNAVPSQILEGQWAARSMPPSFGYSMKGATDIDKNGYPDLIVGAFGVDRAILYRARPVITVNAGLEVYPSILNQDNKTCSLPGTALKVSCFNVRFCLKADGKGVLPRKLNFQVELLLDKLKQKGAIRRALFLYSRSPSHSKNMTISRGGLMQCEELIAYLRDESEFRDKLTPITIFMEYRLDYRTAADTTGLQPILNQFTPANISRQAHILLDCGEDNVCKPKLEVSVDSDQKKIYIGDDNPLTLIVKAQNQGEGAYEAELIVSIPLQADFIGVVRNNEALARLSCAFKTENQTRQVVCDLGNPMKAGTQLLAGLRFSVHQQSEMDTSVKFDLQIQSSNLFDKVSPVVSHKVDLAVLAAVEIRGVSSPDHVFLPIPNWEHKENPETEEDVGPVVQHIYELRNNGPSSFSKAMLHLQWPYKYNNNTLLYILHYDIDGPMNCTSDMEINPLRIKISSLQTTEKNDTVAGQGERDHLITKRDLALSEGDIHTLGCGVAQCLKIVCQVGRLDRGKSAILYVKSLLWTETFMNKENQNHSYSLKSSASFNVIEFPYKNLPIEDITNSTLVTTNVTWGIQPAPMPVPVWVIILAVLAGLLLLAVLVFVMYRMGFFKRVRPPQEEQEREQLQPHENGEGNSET
integrin αvβ3 on cells, sequence (P05106 27-788, chain 2 of 2): as the sequence (P05106 27-788, chain 2 of 2) above
integrin αvβ5 on cells (human), sequence (P06756 31-1048, chain 1 of 2): as the sequence (P06756 31-1048, chain 1 of 2) above
integrin αvβ5 on cells (human), sequence (P18084 24-799, chain 2 of 2, further chain): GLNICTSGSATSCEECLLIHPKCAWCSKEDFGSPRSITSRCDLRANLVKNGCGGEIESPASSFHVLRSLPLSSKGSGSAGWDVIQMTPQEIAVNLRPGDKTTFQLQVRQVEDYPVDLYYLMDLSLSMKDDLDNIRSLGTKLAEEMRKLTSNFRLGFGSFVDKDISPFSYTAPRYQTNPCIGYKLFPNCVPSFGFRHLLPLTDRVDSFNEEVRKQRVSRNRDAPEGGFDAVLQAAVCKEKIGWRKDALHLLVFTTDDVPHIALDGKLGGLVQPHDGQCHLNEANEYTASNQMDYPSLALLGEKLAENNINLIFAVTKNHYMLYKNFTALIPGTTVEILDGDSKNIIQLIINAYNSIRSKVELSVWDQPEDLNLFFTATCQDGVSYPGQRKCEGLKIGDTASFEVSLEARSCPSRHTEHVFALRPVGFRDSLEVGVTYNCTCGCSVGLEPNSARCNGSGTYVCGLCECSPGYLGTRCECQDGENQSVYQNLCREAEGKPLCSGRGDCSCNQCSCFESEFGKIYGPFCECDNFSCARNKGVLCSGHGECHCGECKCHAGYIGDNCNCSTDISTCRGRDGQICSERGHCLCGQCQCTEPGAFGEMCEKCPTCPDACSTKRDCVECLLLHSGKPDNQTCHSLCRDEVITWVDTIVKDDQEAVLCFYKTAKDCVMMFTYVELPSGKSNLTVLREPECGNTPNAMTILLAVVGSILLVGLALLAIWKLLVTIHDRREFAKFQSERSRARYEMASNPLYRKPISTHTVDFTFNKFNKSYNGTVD

**Q.** With 7E3 murine monoclonal antibody as the molecule, how does the maximum inhibition of adhesion of T24 cells to immobilized vitronectin (integrin αvβ3 on cells) read?
**A.** The maximum inhibition of adhesion of T24 cells to immobilized vitronectin was < 40%.

**Q.** Which inhibition of adhesion of T24-β3 neg. cells to immobilized vitronectin [1] does the source give for P1F6 monoclonal antibody here?
**A.** The inhibition of adhesion of T24-β3 neg. cells to immobilized vitronectin was 80%.

**Q.** And the inhibition of adhesion of T24 cells to immobilized vitronectin [1]?
**A.** The inhibition of adhesion of T24 cells to immobilized vitronectin was < 40%.

B1: contortrostatin (ligand)
chain: DAPANPCCDAATCKLTTGSQCADGLCCDQCKFMKEGTVCRRARGDDLDDYCNGISAGCPRNPFHA
notes: also called CN; homodimeric disintegrin
**Q.** How did the Kd [2] turn out when B1 was run?
**A.** The Kd was 1.1 nM.

**Q.** What about the sites per cell (sites per cell) [2] of the same molecule?
**A.** Its sites per cell (sites per cell) is 96000.

**Q.** What about the Kd [3] of the same molecule?
**A.** The Kd was 41 nM.

**Q.** And the sites per cell (sites per cell) [3]?
**A.** The sites per cell (sites per cell) was 480000.

**Q.** And the IC50 for inhibition of adhesion of MDA-MB-435 cells to immobilized fibronectin [4]?
**A.** Its IC50 for inhibition of adhesion of MDA-MB-435 cells to immobilized fibronectin is 18 nM.

**Q.** And the “IC50 for inhibition of adhesion of MDA-MB-435 cells to immobilized vitronectin” value (integrin αvβ3 on cells)?
**A.** Its value is 1.5 nM.

**Q.** And the Kd [5]?
**A.** The Kd was 37 nM.

**Q.** What about the IC50 [6] of the same molecule?
**A.** Its IC50 is 25 nM.

**Q.** How did the IC50 [7] turn out when GRGDSP [RGD peptide GRGDSP] was run?
**A.** The IC50 was 400000 nM.
